Biological target: T1, N-ht-CRP (cAMP receptor protein) (Shewanella oneidensis MR-1) (UniProt Q8EJ49)
T1 sequence: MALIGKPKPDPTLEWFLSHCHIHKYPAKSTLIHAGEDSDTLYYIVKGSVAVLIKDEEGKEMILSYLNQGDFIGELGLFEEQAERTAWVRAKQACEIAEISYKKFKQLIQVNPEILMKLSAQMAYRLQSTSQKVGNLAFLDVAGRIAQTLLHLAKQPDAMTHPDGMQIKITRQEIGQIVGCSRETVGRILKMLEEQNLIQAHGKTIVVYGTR
Experiment: EMSA
Settings: 10 mM Tris-HCl pH 7.6, 0.5 mM EDTA, 100 mM KCl, 50 ug/mL BSA, 50 ug/mL poly(dI-dC), 50 uM cAMP, 10% glycerol, 2 nM probe, 0-200 ng CRP in 20 uL, on ice 30 min …

With “CCCGCTTAAAGTGACTGATAAATACCAATGACTTAGTTAGCCTTACAGGTGGGATCTAATTCC (double strand) [PBomcA2]” as the sequence, how does the binding read?
The binding was “no binding”.

Which binding does the source give for “CCTTGGGGAATTCTATTTCCAGCATCCACTTAAGTCGCTTCTAGTGATCAAATACACAGACATAGAATCTGTTGGCGCTAGAGCATAGCGGTTAAGCAATGCCAAACCTATGCAGGGAAAA (double strand) [PBmtrC2]” here?
The binding was “no binding”.

Which binding does the source give for “TCCACCTCACTATCTGTTGTTTTTTTGCTCTCAATTTGTTTTTCCCTTGTGGTTTAACTACCTCTTTAGAAATAGAAAGATCCAAGTCACACATTAGCAAAGGCTTAGAAGATTTTAACGGCATGTTGGGTTAGCCTTTCCTTGGGGAATTCTATTTCCAGCATCCACTTAAGTCGCTTCTAGTGATCAAATACACAGACATAGAATCTGTTGGCGCTAGAGCATAGCGGTTAAGCAATGCCAAACCTATGCAGGGAAAA (double strand) [PBmtrC1]” here?
Its binding is “binds more weakly”.
